Results: patent US20240010753A1 (EPIMAB BIOTHERAPEUTICS HK, published 2024)

B1: FIT1007-12B-5 (bispecific antibody, human IgG1, kappa, L234A L235A)
chain 1: not shown
chain 2: EVQLVQSGAEVKKPGSSVKVSCKASGYTFSRSWMNWVRQAPGQGLEWIGRIYPGNGDIKYNGNFKGRATITADKSTSTAYMELSSLRSEDTAVYYCAHIYYDFYYALDYWGQGTTVTVSSASTKGPSVFPLAPSSKSTSGGTAALGCLVKDYFPEPVTVSWNSGALTSGVHTFPAVLQSSGLYSLSSVVTVPSSSLGTQTYICNVNHKPSNTKVDKKVEPKSC
chain 3: not shown
notes: ROR1xCD3 FIT-Ig, same build as FIT1007-12B-1, no linkers
B2: FIT1007-12B-3 (bispecific antibody, human IgG1, kappa, L234A L235A)
chain 1: not shown
chain 2: EVQLVQSGAEVKKPGSSVKVSCKASGYTFSRSWMNWVKQAPGQGLEWIGRIYPGNGDIKYNGNFKGKATITADKSTSTAYMELSSLRSEDTAVYYCAHIYYDFYYALDYWGQGTTVTVSSASTKGPSVFPLAPSSKSTSGGTAALGCLVKDYFPEPVTVSWNSGALTSGVHTFPAVLQSSGLYSLSSVVTVPSSSLGTQTYICNVNHKPSNTKVDKKVEPKSC
chain 3: not shown
notes: as for B1
B3: FIT1007-12B-7 (bispecific antibody, human IgG1, kappa, L234A L235A)
chain 1: not shown
chain 2: EVQLVQSGAEVKKPGSSVKVSCKASGYTFSRSWMNWVRQAPGQGLEWMGRIYPGNGDIKYNGNFKGRVTITADKSTSTAYMELSSLRSEDTAVYYCAHIYYDFYYALDYWGQGTTVTVSSASTKGPSVFPLAPSSKSTSGGTAALGCLVKDYFPEPVTVSWNSGALTSGVHTFPAVLQSSGLYSLSSVVTVPSSSLGTQTYICNVNHKPSNTKVDKKVEPKSC
chain 3: not shown
notes: as for B1
B4: FIT1007-12B-12 (bispecific antibody, human IgG1, kappa, L234A L235A)
chain 1: not shown
chain 2: EVQLVQSGAEVKKPGSSVKVSCKASGYTFSRSWMNWVKQAPGQGLEWIGRIYPGNGDIKYNGNFKGKATITADKSTSTAYMELSSLRSEDTAVYYCAHIYYDFYYALDYWGQGTTVTVSSASTKGPSVFPLAPSSKSTSGGTAALGCLVKDYFPEPVTVSWNSGALTSGVHTFPAVLQSSGLYSLSSVVTVPSSSLGTQTYICNVNHKPSNTKVDKKVEPKSC
chain 3: not shown
notes: as for B1
B5: FIT1007-12B-1 (bispecific antibody, human IgG1, kappa, L234A L235A)
chain 1: not shown
chain 2: EVQLVQSGAEVKKPGSSVKVSCKASGYTFSRSWMNWVRQAPGQGLEWMGRIYPGNGDIKYNGNFKGRVTITADKSTSTAYMELSSLRSEDTAVYYCAHIYYDFYYALDYWGQGTTVTVSSASTKGPSVFPLAPSSKSTSGGTAALGCLVKDYFPEPVTVSWNSGALTSGVHTFPAVLQSSGLYSLSSVVTVPSSSLGTQTYICNVNHKPSNTKVDKKVEPKSC
chain 3: not shown
notes: ROR1xCD3 FIT-Ig, chain #1 VL(ROR1)-CL-VH(CD3)-CH1-hinge-CH2-CH3, chain #2 VH(ROR1)-CH1, chain #3 VL(CD3)-CL, no linkers
B6: FIT1007-12B-2 (bispecific antibody, human IgG1, kappa, L234A L235A)
chain 1: not shown
chain 2: EVQLVQSGAEVKKPGSSVKVSCKASGYTFSRSWMNWVRQAPGQGLEWIGRIYPGNGDIKYNGNFKGRATITADKSTSTAYMELSSLRSEDTAVYYCAHIYYDFYYALDYWGQGTTVTVSSASTKGPSVFPLAPSSKSTSGGTAALGCLVKDYFPEPVTVSWNSGALTSGVHTFPAVLQSSGLYSLSSVVTVPSSSLGTQTYICNVNHKPSNTKVDKKVEPKSC
chain 3: not shown
notes: as for B1
B7: FIT1007-12B-6 (bispecific antibody, human IgG1, kappa, L234A L235A)
chain 1: not shown
chain 2: EVQLVQSGAEVKKPGSSVKVSCKASGYTFSRSWMNWVKQAPGQGLEWIGRIYPGNGDIKYNGNFKGKATITADKSTSTAYMELSSLRSEDTAVYYCAHIYYDFYYALDYWGQGTTVTVSSASTKGPSVFPLAPSSKSTSGGTAALGCLVKDYFPEPVTVSWNSGALTSGVHTFPAVLQSSGLYSLSSVVTVPSSSLGTQTYICNVNHKPSNTKVDKKVEPKSC
chain 3: not shown
notes: as for B1
B8: FIT1007-12B-4 (bispecific antibody, human IgG1, kappa, L234A L235A)
chain 1: not shown
chain 2: EVQLVQSGAEVKKPGSSVKVSCKASGYTFSRSWMNWVRQAPGQGLEWMGRIYPGNGDIKYNGNFKGRVTITADKSTSTAYMELSSLRSEDTAVYYCAHIYYDFYYALDYWGQGTTVTVSSASTKGPSVFPLAPSSKSTSGGTAALGCLVKDYFPEPVTVSWNSGALTSGVHTFPAVLQSSGLYSLSSVVTVPSSSLGTQTYICNVNHKPSNTKVDKKVEPKSC
chain 3: not shown
notes: as for B1
B9: FIT1007-12B-11 (bispecific antibody, human IgG1, kappa, L234A L235A)
chain 1: not shown
chain 2: EVQLVQSGAEVKKPGSSVKVSCKASGYTFSRSWMNWVRQAPGQGLEWIGRIYPGNGDIKYNGNFKGRATITADKSTSTAYMELSSLRSEDTAVYYCAHIYYDFYYALDYWGQGTTVTVSSASTKGPSVFPLAPSSKSTSGGTAALGCLVKDYFPEPVTVSWNSGALTSGVHTFPAVLQSSGLYSLSSVVTVPSSSLGTQTYICNVNHKPSNTKVDKKVEPKSC
chain 3: not shown
notes: as for B1
B10: FIT1007-12B-9 (bispecific antibody, human IgG1, kappa, L234A L235A)
chain 1: not shown
chain 2: EVQLVQSGAEVKKPGSSVKVSCKASGYTFSRSWMNWVKQAPGQGLEWIGRIYPGNGDIKYNGNFKGKATITADKSTSTAYMELSSLRSEDTAVYYCAHIYYDFYYALDYWGQGTTVTVSSASTKGPSVFPLAPSSKSTSGGTAALGCLVKDYFPEPVTVSWNSGALTSGVHTFPAVLQSSGLYSLSSVVTVPSSSLGTQTYICNVNHKPSNTKVDKKVEPKSC
chain 3: not shown
notes: as for B1
B11: FIT1007-12B-8 (bispecific antibody, human IgG1, kappa, L234A L235A)
chain 1: not shown
chain 2: EVQLVQSGAEVKKPGSSVKVSCKASGYTFSRSWMNWVRQAPGQGLEWIGRIYPGNGDIKYNGNFKGRATITADKSTSTAYMELSSLRSEDTAVYYCAHIYYDFYYALDYWGQGTTVTVSSASTKGPSVFPLAPSSKSTSGGTAALGCLVKDYFPEPVTVSWNSGALTSGVHTFPAVLQSSGLYSLSSVVTVPSSSLGTQTYICNVNHKPSNTKVDKKVEPKSC
chain 3: not shown
notes: as for B1
B12: FIT1007-12B-10 (bispecific antibody, human IgG1, kappa, L234A L235A)
chain 1: not shown
chain 2: EVQLVQSGAEVKKPGSSVKVSCKASGYTFSRSWMNWVRQAPGQGLEWMGRIYPGNGDIKYNGNFKGRVTITADKSTSTAYMELSSLRSEDTAVYYCAHIYYDFYYALDYWGQGTTVTVSSASTKGPSVFPLAPSSKSTSGGTAALGCLVKDYFPEPVTVSWNSGALTSGVHTFPAVLQSSGLYSLSSVVTVPSSSLGTQTYICNVNHKPSNTKVDKKVEPKSC
chain 3: not shown
notes: as for B1
B13: FIT1007-12B-13 (bispecific antibody, human IgG1, kappa, L234A L235A)
chain 1: not shown
chain 2: QVQLQQSGPELVKPGASVKISCKASGYAFSRSWMNWVKQRPEKGLEWIGRIYPGNADIKYNANFKGKATLTADKSSSTAYMQLSSLTSEDSAVYFCAHIYYDFYYALDYWGQGTSVTVSSASTKGPSVFPLAPSSKSTSGGTAALGCLVKDYFPEPVTVSWNSGALTSGVHTFPAVLQSSGLYSLSSVVTVPSSSLGTQTYICNVNHKPSNTKVDKKVEPKSC
chain 3: not shown
notes: Chimeric ROR1 arm with CDR-H2 point mutations (AA); ROR1xCD3 FIT-Ig, no linkers
B14: FIT1007-12B-16 (bispecific antibody, human IgG1, kappa, L234A L235A)
chain 1: not shown
chain 2: QVQLQQSGPELVKPGASVKISCKASGYAFSRSWMNWVKQRPEKGLEWIGRIYPGQGDIKYNANFKGKATLTADKSSSTAYMQLSSLTSEDSAVYFCAHIYYDFYYALDYWGQGTSVTVSSASTKGPSVFPLAPSSKSTSGGTAALGCLVKDYFPEPVTVSWNSGALTSGVHTFPAVLQSSGLYSLSSVVTVPSSSLGTQTYICNVNHKPSNTKVDKKVEPKSC
chain 3: not shown
notes: Chimeric ROR1 arm with CDR-H2 point mutations (QA); ROR1xCD3 FIT-Ig, no linkers

Target: T1, recombinant human ROR1-ECD protein (human, UniProt Q01973 30-406)
T1 construct: also called human ROR1 extracellular domain
Test: BLI (Octet RED96), FIT-Ig captured on anti-hIgG Fc sensors, ROR1 ECD at 10 ug/ml; off-rate relative to FIT1007-12B
Method: The ROR1/CD3 FIT-Ig proteins were assayed for and ranked by dissociation rate constant (koff, “off-rate”) using an Octet®RED96 biolayer interferometry (Pall FortéBio LLC). Anti-hIgG Fc Capture (AHC) Biosensors (Pall) were first exposed to antibody at a concentration of 100 nM for 30 seconds to capture antibody, then dipped into running buffer (1× pH 7.2 PBS, 0.05% Tween 20, 0.1% BSA) for 60 seconds to check baseline. Sensors with captured antibody were dipped into recombinant human ROR1 ECD protein at 10 ug/ml for 5 minutes to measure association, followed by dipped into running buffer for 1200 seconds to measure dissociation. The association and dissociation curves were fitted to a 1:1 Langmuir binding model using ForteBio Data Analysis software (Pall). The off-rate ratios were calculated by the off-rate of antibody to that of FIT1007-12B. Lower ratio indicates slower dissociation of the antibody in comparison with the parental chimeric antibody FIT1007-12B.

T1 sequence (Q01973 30-406): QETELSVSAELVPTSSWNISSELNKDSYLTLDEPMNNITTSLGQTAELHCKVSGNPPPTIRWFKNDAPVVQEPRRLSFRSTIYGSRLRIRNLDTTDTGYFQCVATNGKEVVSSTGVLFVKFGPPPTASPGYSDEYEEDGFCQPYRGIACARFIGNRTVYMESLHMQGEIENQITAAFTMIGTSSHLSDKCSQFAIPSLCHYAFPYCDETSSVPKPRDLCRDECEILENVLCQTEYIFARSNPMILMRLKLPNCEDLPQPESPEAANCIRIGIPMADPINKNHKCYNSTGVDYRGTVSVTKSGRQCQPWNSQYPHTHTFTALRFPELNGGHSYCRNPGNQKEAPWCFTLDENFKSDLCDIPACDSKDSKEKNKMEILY

First: B1
Second: B2
The “Off-rate Ratio” value of the first is higher: 28.5% for the first, 11.9% for the second.

Going from B3 to B4, the “Off-rate Ratio” value rises from 13.6% to 25.2%.

Compared with B5, B6 is higher in “Off-rate Ratio” value: 5.25% for the first, 7.87% for the second.

Going from B7 to B8, the “Off-rate Ratio” value rises from 25.8% to 35.9%.

Compared with B9, B10 is lower in “Off-rate Ratio” value: 28.9% for the first, 12% for the second.

Going from B11 to B12, the “Off-rate Ratio” value rises from 15.4% to 36.7%.

Compared with B13, B14 is higher in “Off-rate Ratio” value: 89.1% for the first, 139% for the second.
